In PMC11797056, “The ATPase activity of yeast chromosome axis protein Hop1 affects the frequency of meiotic crossovers” (Nucleic Acids Research, 2024):

Tests used:
Hop1 = target: T1, Hop1 (Saccharomyces cerevisiae, UniProt P20050); assay: ITC (also ATP-agarose chromatography, UV crosslinking/filter binding, ATPase kinetics with Km […])
T1 construct: full-length His6-tagged WT Hop1
T1 sequence (P20050 1-605): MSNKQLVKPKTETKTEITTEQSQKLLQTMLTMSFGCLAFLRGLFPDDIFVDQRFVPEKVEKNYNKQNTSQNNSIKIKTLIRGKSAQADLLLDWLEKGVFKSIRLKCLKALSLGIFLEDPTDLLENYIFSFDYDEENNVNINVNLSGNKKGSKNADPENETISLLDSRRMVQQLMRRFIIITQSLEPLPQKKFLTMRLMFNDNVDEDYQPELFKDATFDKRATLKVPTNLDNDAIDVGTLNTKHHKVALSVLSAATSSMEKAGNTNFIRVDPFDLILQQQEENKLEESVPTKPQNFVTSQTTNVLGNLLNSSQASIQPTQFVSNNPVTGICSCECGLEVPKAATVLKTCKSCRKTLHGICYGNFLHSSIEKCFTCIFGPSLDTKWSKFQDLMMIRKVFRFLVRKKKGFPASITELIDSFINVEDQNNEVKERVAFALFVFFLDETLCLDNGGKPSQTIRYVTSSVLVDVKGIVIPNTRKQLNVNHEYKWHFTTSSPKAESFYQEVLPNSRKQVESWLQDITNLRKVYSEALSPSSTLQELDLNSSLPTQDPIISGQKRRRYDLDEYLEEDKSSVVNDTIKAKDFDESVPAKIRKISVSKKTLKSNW

Hop1 HORMA domain = target: T2, Hop1 HORMA domain (S. cerevisiae, UniProt P20050 20-250, Red-tris-NTA label (in the MST only)); assay: MST; Red-tris-NTA labelled Hop1 HORMA domain fixed at 20 nM, Hop1-CTD titrated 0.00031 to 10 uM; incubated at 37°C for 15 min; Pico-RED, 5% excitation power; Hill model; apparent Kd; conditions: both partners purified
T2 construct: Hop1, S. cerevisiae, N-terminal HORMA domain; Amplified from pET28a-HOP1 and cloned NdeI/XhoI into pET14b; also called N-terminal HORMA domain; N-terminal region of Hop1; source: E. coli Rosetta (DE3), pET-14b, purified (Ni2+-NTA); not shown: His tag (inferred: Ni2+-NTA purification); Red-tris-NTA labelling; anti-His detection
T2 sequence (looked up): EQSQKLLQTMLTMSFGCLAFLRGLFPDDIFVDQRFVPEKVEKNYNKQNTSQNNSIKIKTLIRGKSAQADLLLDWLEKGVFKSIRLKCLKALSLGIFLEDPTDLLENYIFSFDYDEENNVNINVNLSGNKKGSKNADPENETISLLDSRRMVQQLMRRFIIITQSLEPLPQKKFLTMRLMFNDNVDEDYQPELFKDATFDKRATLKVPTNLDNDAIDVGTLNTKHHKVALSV

Hop1 WT = target: T3, Hop1 WT (Saccharomyces cerevisiae, UniProt P20050 1-605); assay: MST; 25 nM HJ; EMSA: 25 mM HEPES pH 7.5, 0.5 nM 32P-HJ, 37 C 15 min, 8% PAGE in TBE (25 mM Tris base pH 8.0, 25 mM boric acid, 0.5 mM EDTA) at 4 C; MST: 25 nM 6-FAM HJ, buffer not in material; conditions: protein: recombinant; tags: N-terminal His6 (pET28a); label: 5'-6FAM on HJ02; four-way junction of 4 strands
T3 sequence: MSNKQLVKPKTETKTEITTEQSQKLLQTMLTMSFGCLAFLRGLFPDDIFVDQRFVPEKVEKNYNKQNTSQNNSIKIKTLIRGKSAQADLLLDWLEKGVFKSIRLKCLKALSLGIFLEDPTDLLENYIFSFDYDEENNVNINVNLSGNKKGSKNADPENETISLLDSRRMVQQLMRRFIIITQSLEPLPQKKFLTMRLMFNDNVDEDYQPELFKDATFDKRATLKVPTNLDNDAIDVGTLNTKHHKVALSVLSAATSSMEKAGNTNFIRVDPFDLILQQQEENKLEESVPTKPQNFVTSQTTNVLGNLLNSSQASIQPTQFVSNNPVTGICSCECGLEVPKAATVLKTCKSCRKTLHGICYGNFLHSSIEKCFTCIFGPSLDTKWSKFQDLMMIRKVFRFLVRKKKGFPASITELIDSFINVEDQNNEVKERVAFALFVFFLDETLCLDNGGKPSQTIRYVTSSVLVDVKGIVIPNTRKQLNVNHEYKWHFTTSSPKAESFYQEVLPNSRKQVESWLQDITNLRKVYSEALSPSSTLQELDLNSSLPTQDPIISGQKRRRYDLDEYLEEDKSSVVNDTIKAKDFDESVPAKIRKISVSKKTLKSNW

## Nc1ncnc2c1ncn2C1OC(COP(=O)(O)OP(=O)(O)OP(=O)(O)O)C(O)C1O (stereo not drawn) [ATP]
Hop1
  Kd: ~32900 nM

B1: Hop1-CTD (domain or fragment)
chain: LSAATSSMEKAGNTNFIRVDPFDLILQQQEENKLEESVPTKPQNFVTSQTTNVLGNLLNSSQASIQPTQFVSNNPVTGICSCECGLEVPKAATVLKTCKSCRKTLHGICYGNFLHSSIEKCFTCIFGPSLDTKWSKFQDLMMIRKVFRFLVRKKKGFPASITELIDSFINVEDQNNEVKERVAFALFVFFLDETLCLDNGGKPSQTIRYVTSSVLVDVKGIVIPNTRKQLNVNHEYKWHFTTSSPKAESFYQEVLPNSRKQVESWLQDITNLRKVYSEALSPSSTLQELDLNSSLPTQDPIISGQKRRRYDLDEYLEEDKSSVVNDTIKAKDFDESVPAKIRKISVSKKTLKSNW
Hop1 HORMA domain
  Kd: 1900 ± 500 nM

B2: Holliday junction (HJ), 6-FAM (structured_DNA)
DNA 1: GACGCTGCCGAATTCTACCAGTGCCTTGCTAGGACATCTTTGCCCACCTGCCGGTTCACCC
DNA 2: TGGGTGAACCTGCAGGTGGGCAAAGATGTCCTAGCAATGTAATCGTCAAAGCTTTATGCCGTT
DNA 3: CAACGGCATAAAGCTTGACGATTACATTGCTAGGACATGCTGTCTAGAGGATCCGACTATCGA
DNA 4: ATCGATAGTCGGATCCTCTAGACAGCATGTCCTAGCAAGGCACTGGTAGAATTCGGCAGCGT
Hop1 WT
  Kd: 206 nM
